Laboratory results: patent US20160304565A1 (US Dept. of Health and Human Services, published 2016)

Molecular target: the molecule itself
Assay: gel filtration chromatography (self-association)

B1: E. coli-produced, properly folded RSV G0-dTM (67-298) protein of the RSV-A2 strain, C-terminal His6 tag (other)
chain: HKVTPTTAIIQDATSQIKNTTPTYLTQNPQLGISPSNPSEITSQITTILASTTPGVKSTLQSTTVKTKNTTTTQTQPSKPTTKQRQNKPPSKPNNDFHFEVFNFVPCSICSNNPTCWAICKRIPNKKPGKKTTTKPTKKPTLKTTKKDPKPQTTKSKEVPTTKPTEEPTINTTKTNIITTLLTSNTTGNPELTSQMETFHSTSSEGNPSPSQVSTTSEYPSQPSSPPNTPRQHHHHHH
notes: also called REG; bacterially produced RSV-A2 G
Question: Does B1 bind?
Answer: Result: binds
